Columns and labels:
[1] = Specific activity of CPC acylase to GL-7-ACA; assay type: biochemical; conditions: purified enzyme
Method: J. Appl. Microbiol. Biotechnol. 23: 559-564, 1995). […] After the reaction, the mixture (200 μl) of 50 mM NaOH and 20% glacial acetic acid (1:2) was added thereto to stop the reaction. 200 μl of the supernatant recovered from the reaction mixture by centrifugation was mixed with 40 μl of 0.5% (w/v) PDAB (p-dimethylaminobenzaldehyde; Sigma, USA) dissolved in a methanol and the reaction mixture was incubated at 37° C. for 10 min. After the reaction, the absorbance of reaction mixture was measured at 415 nm and quantified by comparing with a calibration curve of standard material. […] Biochem. 72: 248-254, 1976) and representing it as an active unit corresponding to 1 mg of protein. The reactivity of CPC acylase mutant to CPC was determined by the following steps of adding the same amount of protein to a reaction mixture, performing an enzyme reaction for a fixed time, measuring the amount of 7-ACA produced in the reaction mixture, and representing it as a relative value. The end-product inhibition by 7-ACA was determined by adding a protein corresponding to the same active unit to a reaction mixture, performing an enzyme reaction for a fixed time; measuring the amount of 7-ACA produced in the reaction mixture, and representing it as a relative value.
Therefore, it has been known that the Pseudomonas sp.

[2] = Productivity of CPC acylase, pBC KS(+) plasmids in E. coli MC1061; conditions: E. coli MC1061, LB, 25° C., 48 hr, crude enzyme
Method: To compare the productivity of CPC acylase by pBCPC plasmid derived E. coli transformant with that by pBSEM plasmid derived E. coli transformant, a CPC acylase crude enzyme solution obtained from each E. coli transformant was prepared as follows. Each E. coli transformant was inoculated into 3 ml of a LB medium (1% Bacto-Tryptone, 0.5% Yeast Extract, 0.5% NaCl) containing 25 μg/ml of chloramphenicol and cultured at 30° C., 200 rpm for 16 hr with vigorous shaking. 50 μl of the culture solution was transformed to 50 ml of a new LB medium containing […] of chloramphenicol and further cultured at 25° C., 200 rpm for 48 hr with vigorous shaking. The culture solution was subjected to centrifugation at 4° C., 8,000 rpm for 10 min to separate a precipitate and the precipitate washed twice with 0.1 M Tris-HCl buffer solution (pH 8.0). This precipitate was suspended in 5 ml of the same buffer solution and subjected to ultra-sonication at 4° C. for 10 min. […]
The enzyme activity of CPC acylase mutant to CPC was measured according to the method described by Park et al. with minor modifications as follows (Park, et al., Kor. J. Appl. Microbiol. Biotechnol. 23: 559-564, 1995). […] After the reaction, the absorbance of reaction mixture was measured at 415 nm and quantified by comparing with a calibration curve of standard material. […] Meanwhile, the specific activity of CPC acylase mutant for CPC was determined by measuring the amount of protein remaining in the enzyme solution according to the method described by Bradford (Bradford, M., Anal. Biochem. 72: 248-254, 1976) and representing it as an active unit corresponding to 1 mg of protein. The reactivity of CPC acylase mutant to CPC was determined by the following steps of adding the same amount of protein to a reaction mixture, performing an enzyme reaction for a fixed time, measuring the amount of 7-ACA produced in the reaction mixture, and representing it as a relative value. […]

[3] = Matsuda et al. 1987; cited from earlier work
[4] = Optimal reaction temperature and pH to CPC; assay type: biochemical; conditions: purified mutant enzyme
Method: Further, as a result of examining the optimal reaction temperature and pH of the wild-type CPC acylase AcyII, the optimal reaction temperature and pH to CPC were 40° C. and 9.0, respectively.

B1: Wild-type: Pseudomonas sp. SE83 derived wild-type CPC acylase (AcyII), α-subunit SEQ ID NO: 4 and β-subunit SEQ ID NO: 5, from pBCPC (protein)
alpha: TMAAKTDREALQAALPPLSGSLSIPGLSAPVRVQRDGWGIPHIKASGEADAYRALGFVHAQDRLFQMELTRRKALGRAAEWLGAEAAEADILVRRLGMEKVCRRDFEALGAEAKDMLRAYVAGVNAFLASGAPLPIEYGLLGAEPEPWEPWHSIAVMRRLGLLMGSVWFKLWRMLALPVVGAANALKLRYDDGGQDLLCIPPGVEAERLEADLAALRPAVDALLKAMGG
beta: SNNWAVAPGRTATGRPILAGDPHRVFEIPGMYAQHHLACDRFDMIGLTVPGVPGFPHFAHNGKVAYCVTHAFMDIHDLYLEQFAEDGRTARFGNEFEPVAWRRDRIAVRGGADREFDIVETRHGPVIAGDPLEGAALTLRSVQFAETDLSFDCLTRMPGASTVAQLYDATRGWGLIDHNLVAGDVAGSIGHLVRARVPSRPRENGWLPVPGWSGEHEWRGWIPHEAMPRVIDPPGGLIVTANNRVVADDHPDYLCTDCHPPYRAERIMERLVASPAFAVDDAAAIHADTLSPHVGLLRARLEALGIQGSLPAEELRQTLIAWDGRMDAGSQAASAYNAFRRALTRLVTARSGLEQAIAHPFAAVPPGVSPQGQVWWAVPTLLRNDDAGMLKGWSWDEALSEALSVATQNLTGRGWGEEHRPRFTHPLSAQFPAWAALLNPVSRPIGGDGDTVLANGLVPSAGPEATYGALSRYVFDVGNWDNSRWVVFHGASGHPASPHYADQNAPWSDCAMVPMLYSWDRIAAEAVTSQELVPA
modifications: Pseudomonas sp. SE83
[1]
  specific activity to GL-7-ACA: about 23.1 unit/mg protein
[2]
  The productivity of CPC acylase (unit/l): about 97 unit/l
[2]; listed as pBCPC (wild-type)
  The productivity of CPC acylase (unit/l): 97 unit/l
[3]
  acylase activity to CPC as compared with GL-7-ACA: about 5%

B2: S12: sixfold CPC acylase mutant, α-subunit SEQ ID NO: 7 and β-subunit SEQ ID NO: 8 (protein)
alpha: TMAAKTDREALQAALPPLSGSLSIPGLSAPVRVQRDGWGIPHIKASGEADAYRALGFVHAQDRLFQMELTRRKALGRAAEWLGAEAAEADILVRRLGMEKVCRRDFEALGAEAKDMLRAYAAGVNAFLASGAPLPIEYSLLGAEPEPWEPWHSIAVMRRLGLLMGSVWFKLWRMLALPVVGAANALKLRYDDGGQDLLCIPPGVEAERLEADLAALRPAVDALLKAMGG
beta: SNNWAVAPGRTATGRPILAGDPHRVFEIPGMYAQHHLACDRFDMIGLTVPGVPGFPHNAHNGKVAYCVTHAFMDTHDLYLEQFAEDGRTARFGNEFEPVAWRRDRIAVRGGADREFDIVETRHGPVIAGDPLEGAALTLRSVQFAETDLSFDCLTRMPGASTVAQLYDATRGWGLVDHNLVAGDVAGSIGHLVRARVPSRPRENGWLPVPGWSGEHEWRGWIPHEAMPRVIDPPGGLIVTANNRVVADDHPDYLCTDCHPPYRAERIMERLVASPAFAVDDAAAIHADTLSPHVGLLRARLEALGIQGSLPAEELRQTLIAWDGRMDAGSQAASAYNAFRRALTRLVTARSGLEQAIAHPFAAVPPGVSPQGQVWWAVPTLLRNDDAGMLKGWSWDEALSEALSVATQNLTGRGWGEEHRPRFTHPLSAQFPAWAALLNPVSRPIGGDGDTVLANGLVPSAGPEATYGALCRYVFDVGNWDNSRWVVFHGASGHPASPHYADQNAPWSDCAMVPMLYSWDRIAAEAVTSQELVPA
modifications: alpha-subunit of mutatnt CPC acylase S12 protein; beta-subunit of mutatnt CPC acylase S12 protein
[4]
  reaction feature (e.g., optimal temperature and pH) compared with wild-type: the same as the wild-type CPC acylase
[2]
  The productivity of CPC acylase (unit/l): 712 unit/l

Source: patent US7592168B2, “Cephalosporin C acylase mutant and method for preparing 7-ACA using same” (Sandoz AG, priority 2003, dated 2009)
